Tests used:
[1] = test system: human iPS cell line 201B7; test: Adhesion culture with addition of WNT3A protein into medium, quantitative real-time PCR; type: cell-based; details: Line 201B7, day 5
Procedure: (§1) These cells were lysed using TRIzol™ Reagent (Thermo Fisher Scientific K.K.). Total RNA was isolated and purified from a cell solution obtained by lysing with TRIzol™ Reagent using a PureLink (registered trademark) RNA Mini kit (Thermo Fisher Scientific K.K.). A concentration of the purified RNA was measured using BioSpec-nano (Shimadzu Corporation), and 40 ng was separated. 2 μL of ReverTra Ace (registered trademark) qPCR RT Master Mix (TOYOBO CO., LTD.) and RNase Free dH2O were added to the separated RNA to prepare 10 μL. cDNA synthesis was performed using SimpliAmp Thermal Cycler (Thermo Fisher Scientific K.K.). […] A synthesized cDNA solution was diluted 100-fold with 10 mM Tris-HCl pH 8.0 (NACALAI TESQUE, INC.) and added to a 384-well PCR plate (Thermo Fisher Scientific K.K.) at 5 μL/well. KOD SYBR® qPCR Mix (TOYOBO CO., LTD.), a Forward primer prepared to 50 μM, a Reverse primer prepared to 50 μM, and DEPC-treated water (NACALAI TESQUE, INC.) were mixed at a ratio of 100:1:1:48. This mixed solution was added to the above-mentioned 384-well PCR plate at 15 μL/well and mixed. For the primers, bACT, OCT4, SOX2, Nanog, Brachyury, and SOX17 were used. The 384-well PCR plate was subjected to centrifugal separation to remove air bubbles in the wells, and quantitative real-time PCR analysis was performed using QuantStudio 7 Flex Real-Time PCR System (Thermo Fisher Scientific K.K.).
(§2) The human iPS cell lines 201B7 and RPChiPS771-2 maintenance-cultured in the procedure of Step 1 of Reference Example 3 were treated with Accutase for 3 to 5 minutes to release the cells from the dish. The cells were dispersed into single cells by pipetting. These cells were suspended in a StemFit (registered trademark) AK02N medium containing Y-27632 at a final concentration of 10 μM. A part of the cells was stained with trypan blue to measure the number of living cells. A cell suspension was prepared so that it contained 4.6×10^4 cells per mL using the StemFit (registered trademark) AK02N medium containing Y-27632 a final concentration of 10 μM. 2 mL of the cell suspension per well was seeded in a 6-well plate for cell culture (Sumitomo Bakelite Co., Ltd.) coated with 0.5 μg of Vitronectin per 1 cm^2. WNT3A protein (R&D Systems, Inc.) was added to each of the wells so that final concentrations were 10 pg/mL, 100 pg/mL, 1 ng/mL, 10 ng/mL, and 100 ng/mL, and adhesion culture was performed at 37° C. in a 5% CO2 environment. The day when the cells were seeded was defined as day 0 of the culture. The adhesion culture was performed until day 5 of the culture. Medium exchange was performed every day. […] Phase-contrast images of the cells were acquired using a phase-contrast microscope on day 5 of the culture. FIG. 8 and FIG. 9 show the acquired phase-contrast images. Furthermore, on day 5 of the culture, the culture supernatant was recovered from the wells. 0.5 mL of Accutase was added per well to treat the cells for 3 to 5 minutes. The cells were released from the wells, and were dispersed into single cells by pipetting. These cells were suspended in a StemFit (registered trademark) AK02N medium containing Y-27632 at a final concentration of 10 μM. A part of the cells was stained with trypan blue to measure the number of living cells.
(§3) The phase-contrast images on day 5 of the culture were analyzed with image analysis software (for example, ImageJ), and a proportion of a surface area of cells with respect to a culture area was calculated. From this value and the culture area (9.2 cm^2/well), an area in which the cell surface was in contact with the medium was calculated. Furthermore, a surface area (cm^2) in contact with the medium per cell was calculated from an area in which the cell surface was in contact with the medium and from the number of living cells on day 5 of the culture. […]

[2] = test system: human iPS cell line RPChiPS771-2; test: as above; type: cell-based
Procedure: as §1, §2, §3

[3] = WNT3A protein in medium 10 pg/mL
[4] = WNT3A protein in medium 100 pg/mL
[5] = WNT3A protein in medium 1 ng/mL
[6] = WNT3A protein in medium 10 ng/mL
[7] = WNT3A protein in medium 100 ng/mL
[8] = WNT3A protein in medium 10 pg/mL, adhesion culture, Line RPChiPS771-2, day 5
[9] = WNT3A protein in medium 100 pg/mL, adhesion culture, Line RPChiPS771-2, day 5
[10] = WNT3A protein in medium 1 ng/mL, adhesion culture, Line RPChiPS771-2, day 5
[11] = WNT3A protein in medium 10 ng/mL, adhesion culture, Line RPChiPS771-2, day 5
[12] = WNT3A protein in medium 100 ng/mL, adhesion culture, Line RPChiPS771-2, day 5
[13] = adhesion culture with added WNT3A, lines 201B7 and RPChiPS771-2, day 5

B1: WNT3A protein: WNT3A protein (R&D Systems, Inc.) added to the adhesion culture medium at 10 pg/mL to 100 ng/mL (protein, UniProt P56704 19-352, looked up)
Protein Wnt-3a: SYPIWWSLAVGPQYSSLGSQPILCASIPGLVPKQLRFCRNYVEIMPSVAEGIKIGIQECQHQFRGRRWNCTTVHDSLAIFGPVLDKATRESAFVHAIASAGVAFAVTRSCAEGTAAICGCSSRHQGSPGKGWKWGGCSEDIEFGGMVSREFADARENRPDARSAMNRHNNEAGRQAIASHMHLKCKCHGLSGSCEVKTCWWSQPDFRAIGDFLKDKYDSASEMVVEKHRESRGWVETLRPRYTYFKVPTERDLVYYEASPNFCEPNPETGSFGTRDRTCNVSSHGIDGCDLLCCGRGHNARAERRREKCRCVFHWCCYVSCQECTRVYDVHTCK
Relative gene expression level with respect to ACTB in 2^−Λ Ct, Nanog [1, 3]: 2.59 × 10^−2 | Relative gene expression level with respect to ACTB in 2^−Λ Ct, OCT4 [1, 3]: 2.27 × 10^−1 | Relative gene expression level with respect to ACTB in 2^−Λ Ct, SOX2 [1, 3]: 2.44 × 10^−2 | Relative gene expression level with respect to ACTB in 2^−Λ Ct, Nanog [1, 4]: 2.91 × 10^−2 | Relative gene expression level with respect to ACTB in 2^−Λ Ct, OCT4 [1, 4]: 2.63 × 10^−1 | Relative gene expression level with respect to ACTB in 2^−Λ Ct, SOX2 [1, 4]: 2.75 × 10^−2 | Relative gene expression level with respect to ACTB in 2^−Λ Ct, Nanog [1, 5]: 2.82 × 10^−2 | Relative gene expression level with respect to ACTB in 2^−Λ Ct, OCT4 [1, 5]: 2.50 × 10^−1 | Relative gene expression level with respect to ACTB in 2^−Λ Ct, SOX2 [1, 5]: 2.57 × 10^−2 | Relative gene expression level with respect to ACTB in 2^−Λ Ct, Nanog [1, 6]: 2.96 × 10^−2 | Relative gene expression level with respect to ACTB in 2^−Λ Ct, OCT4 [1, 6]: 2.56 × 10^−1 | Relative gene expression level with respect to ACTB in 2^−Λ Ct, SOX2 [1, 6]: 2.55 × 10^−2 | Relative gene expression level with respect to ACTB in 2^−Λ Ct, Brachyury [1, 7]: 3.14 × 10^−4 | Relative gene expression level with respect to ACTB in 2^−Λ Ct, Nanog [1, 7]: 6.13 × 10^−2 | Relative gene expression level with respect to ACTB in 2^−Λ Ct, OCT4 [1, 7]: 3.60 × 10^−1 | Relative gene expression level with respect to ACTB in 2^−Λ Ct, SOX2 [1, 7]: 2.08 × 10^−2 | Relative gene expression level with respect to ACTB in 2^−Λ Ct, SOX17 [1, 7]: 4.03 × 10^−5 | Relative gene expression level with respect to ACTB in 2^−Λ Ct, Nanog [2, 8]: 5.06 × 10^−2 | Relative gene expression level with respect to ACTB in 2^−Λ Ct, OCT4 [2, 8]: 4.06 × 10^−1 | Relative gene expression level with respect to ACTB in 2^−Λ Ct, SOX2 [2, 8]: 2.64 × 10^−2 | Relative gene expression level with respect to ACTB in 2^−Λ Ct, Nanog [2, 9]: 5.30 × 10^−2 | Relative gene expression level with respect to ACTB in 2^−Λ Ct, OCT4 [2, 9]: 4.44 × 10^−1 | Relative gene expression level with respect to ACTB in 2^−Λ Ct, SOX2 [2, 9]: 2.77 × 10^−2 | Relative gene expression level with respect to ACTB in 2^−Λ Ct, Nanog [2, 10]: 4.88 × 10^−2 | Relative gene expression level with respect to ACTB in 2^−Λ Ct, OCT4 [2, 10]: 3.87 × 10^−1 | Relative gene expression level with respect to ACTB in 2^−Λ Ct, SOX2 [2, 10]: 2.89 × 10^−2 | Relative gene expression level with respect to ACTB in 2^−Λ Ct, Nanog [2, 11]: 5.53 × 10^−2 | Relative gene expression level with respect to ACTB in 2^−Λ Ct, OCT4 [2, 11]: 4.42 × 10^−1 | Relative gene expression level with respect to ACTB in 2^−Λ Ct, SOX2 [2, 11]: 2.77 × 10^−2 | Relative gene expression level with respect to ACTB in 2^−Λ Ct, Brachyury [2, 12]: 3.07 × 10^−4 | Relative gene expression level with respect to ACTB in 2^−Λ Ct, Nanog [2, 12]: 6.65 × 10^−2 | Relative gene expression level with respect to ACTB in 2^−Λ Ct, OCT4 [2, 12]: 4.56 × 10^−1 | Relative gene expression level with respect to ACTB in 2^−Λ Ct, SOX2 [2, 12]: 1.66 × 10^−2 | Relative gene expression level with respect to ACTB in 2^−Λ Ct, SOX17 [2, 12]: 1.11 × 10^−3 | Amount of WNT3A protein contained in unit of medium in contact with unit area of cell surface at which expression of the differentiation marker gene was detected [2, 13]: ≥ 5.2×10^4 μg/mL·cm^2 | Amount of WNT3A protein contained in unit of medium in contact with unit area of cell surface at which expression of the differentiation marker gene was not detected [2, 13]: ≤ 6.7×10^3 μg/mL·cm^2

Source: patent publication US20220195383A1, “METHOD FOR PRODUCING PLURIPOTENT STEM CELLS” (KANEKA CORPORATION, priority 2019, published 2022)
